Laboratory results taken from the nanobody polyreactivity screen of Harvey et al. (2022).

test: yeast display, Sf9 membrane polyspecificity reagent, FACS + sequencing; frameworks hold sequencing errors
Outline: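 After 36–48 hours of galactose induction, yeast (Saccharomyces cerevisiae BJ5465) displaying a synthetic nanobody library were stained at 4 °C for 1 hour with 10% biotinylated, detergent-solubilized Sf9 membrane reagent. Streptavidin microbeads enriched the stained cells before FACS sorting into low and high (top ~1%) gates on anti-HA and streptavidin fluorescence. Each clone's polyreactivity label reflects its gate of origin.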

Sequence	polyreactivity (PSR sort gate)
QVQLVESGGGLVQAGGSLRLSCAASGRIFQRNAMGWYRQAPGKERELVAAITSTGVRTYYADSVKGRFTISRDNAKNTVYLQMNSLKPEDTAVYYCAVRGERRYIYAYWGQGTQVTVSS	high polyreactivity
QVQLVESGGGLVQAGGSLRLSCAASGRIFRYNTMGWYRQAHGKERELVAAIDRGSSTNYADSVKGRFTISRDNAKNTVYLQMNSLKPEDTAVYYCAARVFRPYGSLYDYWGQGTQVTVSS	high polyreactivity
QVQLVESGGGLVQAGGSRRLTCAASGSIFFYNAMGWYRQATGKERELVAAISSATSTYYADSVKGRFTISRDNAMISVYVHMNSLTEEDTAVYYCAADFSDGYFWYDYWGQGTQVTVSS	high polyreactivity
QVQLVESGGGLVQAGGSLRLSCAASGSIFGTYAMGGYRQAPGKERELVAAITGNGGRTYYADSVKGRFTISRDNAKNTVYLQMNSLKPEDTAVYYCAKATSRRGFYYWGQGTQVTVSS	high polyreactivity
QVQLVESAGGLVQAGGSLRLSCAASGSTFLIYALGCYRHAPGKERELVAAITVSGGDTYYADSVKGRFTISRDNAKNTVYLQMNSLKPEDTAVYYCAAEGGNDYSSVDAGISYDYWGQGTKVTVSS	low polyreactivity
QDQLVESGGGLVQAGGSLRLSCAASGSISVANAMGWYRQAPGKERELVAAISWRSDSTYYADSVKGRFTISRDNAKNTVYLQMNSLKPEDTAVYYCAASQYPLIWYDYWGQGTQVTVSS	low polyreactivity
QVQLVESGGGLFQEGGSLRLSCAASGSTFPSYAMGWYRQAPGKERELVAAINSGGGTNYADSVKGRFTISRDNAKNTVYLQMNSLKADDTEVYYCAKSRYDYTKSEGGYWGQGTQVTVSS	low polyreactivity
QVQLVESGGGLVQAGGSLRLSCAASGRTFVYNAMGWYRQAPGKERELVAAISSGGGTNYADSVKGRFTISRDNAKNTVYLQMNSLKPEDTAVYYCAAGFDGSRHPGFDSWVQGTQVTVSS	low polyreactivity
QVQLVESGGGLVQAGGSLRLSCAASGFIFRYYTMGWYRQAPVKERELVASITRSGGSTYYADSVKGRFTISRDNGKNTVYLQMNSLKPEDTAVYYCAAVVYLRFRNSYWGQGTQVTVSS	high polyreactivity
QDQLVESGAGLVQAGGSLRLSCAASGITFSANAMGWYRQAPGKERELVATITWSGGSTYYADSVKGRFTISRDNAKNTVYLQMNSLKPEDTAVYFCNARSYDEYPYYSYNYWGQGTQVTVSS	low polyreactivity
QVQLVESGGGLVQAGGSLRLSCAASGSTLGRYAMGWYRQAPGKERELVASITWSDDSTYYADSVKGRFTISRDNAKNTVSLQMNSLKPEDTAVYYCAAAANLYTYRFYYWGQGTQVTVSS	low polyreactivity
QVQLVESGGGLVQAGGSLRLSCAASGIIFDDYAMGWYRQAPGKERELVAAITTSGGRTYYADSVKGRFTISRDNAKNTVYLQMNSLKPEDTAVYYCATRRGRAYRWMNYWGQGTQVTVSS	high polyreactivity
QVQLVESGGGLVQAGGSLRLSCAASGFTFDPDAMGWYRQAPGKERELVASITWSGDNTYYADSVKGRFSISRDNAKTTVYLQMNSLKPEDTAVYYCNVEWAWWSTRYDSWGQGTQVTVSS	high polyreactivity
QVQLVESGGGLVQAGGSLRLSCAATGRIFKTYAMGWYRQAPGKERELVAAISWTVVSTHYADSVKGRFTISRDNAKNTVYLQMNSLKPEDTAVYYCNADTPLRHRTWNRKVTDFEYDYWGQGTQVTVSS	low polyreactivity
QVQLVESGGGVFQAGGTLSLSCAASGITFYPNDMGWYRQATGKETELVAAITTNDGDTYYADSVKGRFTISRDNAKNTVYLQMNSLKPEYTAVYYCAADSGSTSEYEYWGQGTQVTVSS	low polyreactivity
QVQLVESAGGLVQARGSLRLSCAASGITFAQYAKGWYRQATGKERELVAGITRSGGSTHYADSVKGRFTISRDNAKYTVYLQMKSLKPEDSAVYYCNARYPYRGKRKPPDYWGQGTQVTVSS	high polyreactivity
QVQLVESGGGLVQAGGSLRLSCAASGFIFTLYTMGWYRPAPGKERELVAAISGRGGYTYYADSVKGRFTISRDNAKNTVYLHMNSLKPEDTAVYYCARAAYGFRARSGGDYWGQGTQVTVSS	high polyreactivity
QVQLVESGGGLVQAGGSLRLSCAASGITFRRYGMGWYRQAPGKERELVATITSSVGSRTYYADSVKGRFTISRDNAKNTVYLQMNSLKPEDTAVYYCAADHRVYDYEYWGQGTQVTVSS	low polyreactivity
QVQLVESGGGLVQAGGSLRLSCAASGRIFARYAKGWSRQAPGKERELVAAISRGGSTKNADSVKGRFTISRDNAKITVYLQMNSLKPEDTAVYYCATEYYGPVYDLDYDYWGQGTQVTVSS	low polyreactivity
QVQLVESGGGLVQAGGSLRLSCAASGRTFDDNAMGWYRPAPGKARELVAAISTTGSTNYADSVKGRFTISRDNAQTTVYLQMNSLKPEDTAFYYCAADSTPYVRSGNYDYWGQGTQVTVSS	low polyreactivity
QVQLVESGGGLVQAGGSLRLSFAASGFTFGYYTMGWYRQAPGKERELVAAITSGGGTYYADSVKGRFTISRDNAKNTVYLQMNSLKPEDTAVYYCATTPVWYKVSRRYGYWGQGTQVTVSS	high polyreactivity
QLQLVESGGGLVQAGGSLRLSCAASGRTFFKYVMGWYRQAPGKERELVAAISYRSGSTYYADSVKGRFTISRDNAKNTVYLQMNSLKPEDTAVYYCAKEPPPVKGDYWGQGTQVTVSS	low polyreactivity

Sequence	polyreactivity (PSR sort gate)
QVQLVESGGGLVQAGGSLRLSCAPSGYTFGKYAMGWYRHAPVKERELVATIRSGGSTNYADSVKGRFTISRDNAKNTVYLQMNSLKPEDTAVYYCNKRYRYQYGYDFWGQGTQVTVSS	high polyreactivity
QVQLVQSGGGLVQAGGSLRLSCAASGSIFTPNAMGWYRQAPGKERELVAAISGRTGTTYYADSVKGRFTISRDNAKNTVYLQMHSLKPEDTAVYYCAKSSGRYRSDYRGQGTQVTVSS	high polyreactivity
QVQLVESGGGLVQAGGSLRLSCAASGSSFSPYAMGWYRQAPGKERELVAAINSGSSTNYADSVKGRFTISRDNAKNTVYLQMNSLQPEDTAVYYCAADGQLPPRGILASWEFDYWGQGTQVTVSS	low polyreactivity
QVQLVESGGGLVQAGGSLRLSCAASGITFGDYAMGWSRQAPGKERELVAGINWSGDGTYYADSVKGRFTISRDNAKNTVYLQMNSLKPEDTAVYYCAAETFYDYGGYDYWGQGTQVTVSS	low polyreactivity
QVQLVESGGGLVQAGGSLRLSCAASGSIFVGYGAMGWYRQAPGKERELVAAITSGNSTYYADSVKGRFTISRDNAKNTVYLQMNSLKPEDTAVYYCAARGFLKYVTEFDYWGQGTQVTVSS	low polyreactivity
QVQLVESGGGLDQAGGRLRLSCAASGRTFNVNVMGWYRQSPGKERELVAAIRYTGGSTYADSVKGRFTISRDNAKNTVYLQMNSLKPEDTAVDYCNADTFFPFDHGMDYWGQGTQVTVSS	low polyreactivity
QVQLVESGGGLVQAGGSLRLSCAASGRIFQGNAMGWYRQAPRKERELVAAISWRGGRTYYADSVKGRFTISRAYAKNTVYLQMNSLKPEDTAVYYCAAKAYREDEGYWGQGTQVTVSS	high polyreactivity
QVQIVESGGGLVQAGGSLRLSCAASVIIFSKYGMGWYRQAPGKERELVAAISSSGGTTYYADSVKGRFTISRDNAKNTVYLQMNSLKPEDTAVYYCAATGRRRTYSEYEYWGQGTQVTVSS	high polyreactivity
QVQLVESGGGLVQAGGSLRLSCAASGITFALNAMGWYRQAPGKERELVAAISWSGDSTYYADSVKGRFTISRDNAKNTVYLQMNSLKPEDTAVYYCAAVAYLNWTPHYYWGQGTQVTVSS	low polyreactivity
QVQLVESGGGLVQAGGSLRLSCAASGFTFGYYAMGWYRQAPGKERELVAAISRSGGRTYYADSVKGRFTISRDNAKNTVYLEMNSLKPEDTAVYYCNAVIHGWTLDYEYWGQGTQVTVSS	high polyreactivity
QVQLVESGGGLVQAGVRLRLSFAASGFTFRLYTMGWYRQAPGKERELVAAITYSGDSTYYADSVKGRFTISRDNAKNTVYLQMNSLKPEDTAVYYCAARKYYARYYWGQGTQVTVSS	high polyreactivity
QLQLVESGGGLVQAGGSLRLSCAASGSTFSVYAMGWYRPAPGKERELVAAISSGGNTKYADSVKGRFTISRDNAKNTVYLQMNSLKPEDTAVYYCNADSQRPAYWDGYWGQGTQVTVSS	low polyreactivity
QVQLVESGGGLVQAGGSLRLICAASVSIFTKYAMGWYRQAPGKERELVADITRSGGSTYYADSVKGRFTISRDNAKNTVYLQMNSLKPEDTAVYYCAVDPVRYPYSYDYWGQGTQVTVSS	high polyreactivity
QVQLVESGGGLVQAGGSLRLSCAASGLTFDVYAMGWYRQAPGKERELVAAISSIGGSTYYADSVKGRFTISRDNAKNTVYLQMNSLKPEDTAVYYCAAAISLYSYDYWGQGTQVTVSS	low polyreactivity
QVQLVESGGGLVQAGASLRLSCAASGRTFWFYAMGWYRQAPGQERELVAAISSGGSTNYADSVKGLFTISRDNAKNTVYLQMNSLKPEDTAVYYCAKVGNIPYGTRYYYNRYDYWGQGTQVTVSS	low polyreactivity
QVQLVESGGGLVQAGGSLRLSCAASGRIFFAYAMGWYRQAPGKERELVAAIRFSGGTTYYADSVKGRLTFSRDNAKNTVYLQMNSLKQEDTAVYYFAAGRRRSSSGYGYWGKGTQVTVSS	high polyreactivity
QFQLVESGGGLVQAGGRLRLSCAASGRIFRYSAMGWYRQAPGKERQLVASISSGGSTNYADSVKGRFTISRDNAKNTVYLQMNSLKQEDTAVYYCAARYWVSGFRAGYYWGQGTQVTVSS	high polyreactivity
QVQLVESGGGLVQAGGSLRLSCAASGRIFRFYTMAWYRQAPGKERELVAAITQRGGRTYYADSVKGRFTISRDNAKNTVYLLMNSLKPEDTAVFYCAATTTVAEYDYWGQGTQVTVSS	high polyreactivity
QVQLVESGGGLVQAGGSLRLSCADSGNTIYGYAMGWNRQAPGKERELVASITLSGDSTYYADSVKGRFTISRDNAKNTVFLQMNRLKPEDTSVYYCSGVYTYPLGYYHYTYDYWGQGSQVTVSS	low polyreactivity
QVQLVESGGGLVQAGGSLRLSCAASGFTFGRYAMGWYRQAPGKERELVAAIATRGGSTYYADSVKGRFTISRDNAMNTVYLQMNSLKPEDTAVYYCAAGGYYVRYDYWGQGTQVTVSS	high polyreactivity
QVQLEESGGGLVQAGGSLRLSCAASGRIFYFNTKGWYRQAPGKERELVAAISRSGTSTYYADSVKGRFTISRDFAKNTVYLQMNSLKPEDTAVYYCAARFGVKRGQYDYWGQGTQVTVSS	high polyreactivity
